Laboratory results as given in paper PMC9482650, “Quantitative fragmentomics allow affinity mapping of interactomes” (Nature Communications, 2022).

T1: APBA1_1, Q02410
T1 sequence (Q02410 651-752, limits assumed, looked up): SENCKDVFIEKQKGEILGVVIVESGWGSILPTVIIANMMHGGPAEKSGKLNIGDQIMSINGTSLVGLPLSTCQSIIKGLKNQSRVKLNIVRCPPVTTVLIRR

T2: DLG3_3, Q92796
T2 sequence (Q92796 374-475, limits assumed, looked up): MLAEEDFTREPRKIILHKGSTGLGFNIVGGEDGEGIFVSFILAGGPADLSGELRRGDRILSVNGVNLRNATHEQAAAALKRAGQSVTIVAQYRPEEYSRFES

T3: GRIP1_4, Q9Y3R0
T3 sequence (Q9Y3R0 467-571, limits assumed, looked up): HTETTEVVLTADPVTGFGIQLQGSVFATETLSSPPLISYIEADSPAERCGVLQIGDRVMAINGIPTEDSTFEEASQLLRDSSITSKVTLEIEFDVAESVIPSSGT

T4: LIN7A, O14910
T4 sequence (O14910 103-200, limits assumed, looked up): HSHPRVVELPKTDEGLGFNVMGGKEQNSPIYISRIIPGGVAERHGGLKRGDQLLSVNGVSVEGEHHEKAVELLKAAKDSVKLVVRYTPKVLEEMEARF

T5: MPP6, Q9NZW5
T5 sequence (Q9NZW5 125-219, limits assumed, looked up): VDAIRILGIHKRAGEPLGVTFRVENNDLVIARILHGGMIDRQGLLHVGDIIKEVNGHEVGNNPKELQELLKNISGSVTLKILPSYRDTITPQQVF

T6: MPP7, Q5T2T1
T6 sequence (Q5T2T1 134-230, limits assumed, looked up): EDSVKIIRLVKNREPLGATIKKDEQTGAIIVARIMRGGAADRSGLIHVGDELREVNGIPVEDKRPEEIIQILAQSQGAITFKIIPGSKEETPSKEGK

T7: RAPGEF6, Q8TEU7
T7 sequence (Q8TEU7 525-625, limits assumed, looked up): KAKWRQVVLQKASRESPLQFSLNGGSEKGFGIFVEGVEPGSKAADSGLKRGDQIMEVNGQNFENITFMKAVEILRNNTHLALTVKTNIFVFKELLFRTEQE

T8: SNTG1, Q9NSN8
T8 sequence (Q9NSN8 52-150, limits assumed, looked up): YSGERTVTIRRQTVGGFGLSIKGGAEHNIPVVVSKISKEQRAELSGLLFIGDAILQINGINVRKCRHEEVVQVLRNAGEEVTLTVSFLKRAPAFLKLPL


Legend:
Test in all cases: holdup assay
Design in all cases: key: below the threshold = too weak to quantify, mostly under pKd 3.1 to 4
Conditions in all cases: plain residues with an end cap or a label only (N-terminal biotin on a linker: ado-ado)
APBA1_1, Q02410 = target: T1, APBA1_1, Q02410
CASK, O14936 = target: CASK, O14936
Chain of CASK, O14936 (O14936 487-570): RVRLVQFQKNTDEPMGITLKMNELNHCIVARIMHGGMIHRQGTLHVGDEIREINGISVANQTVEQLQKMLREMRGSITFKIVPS

DLG1_3, Q12959 = target: DLG1_3, Q12959
Chain of DLG1_3, Q12959 (Q12959 457-571): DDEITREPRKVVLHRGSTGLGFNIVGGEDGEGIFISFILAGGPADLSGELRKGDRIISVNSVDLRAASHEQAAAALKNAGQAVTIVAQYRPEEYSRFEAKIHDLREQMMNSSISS

DLG3_3, Q92796 = target: T2, DLG3_3, Q92796
FRMPD2_1, Q68DX3 = target: FRMPD2_1, Q68DX3
Chain of FRMPD2_1, Q68DX3 (Q68DX3 770-861): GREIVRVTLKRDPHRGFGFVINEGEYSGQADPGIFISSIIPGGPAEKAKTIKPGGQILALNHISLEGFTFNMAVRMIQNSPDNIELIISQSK

FRMPD3, Q5JV73 = target: FRMPD3, Q5JV73
Chain of FRMPD3, Q5JV73 (Q5JV73 12-100): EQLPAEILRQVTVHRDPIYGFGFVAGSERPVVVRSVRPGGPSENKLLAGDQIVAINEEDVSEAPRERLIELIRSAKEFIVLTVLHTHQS

GRIP1_4, Q9Y3R0 = target: T3, GRIP1_4, Q9Y3R0
GRIP2_4, Q9C0E4 = target: GRIP2_4, Q9C0E4
Chain of GRIP2_4, Q9C0E4 (Q9C0E4 446-548): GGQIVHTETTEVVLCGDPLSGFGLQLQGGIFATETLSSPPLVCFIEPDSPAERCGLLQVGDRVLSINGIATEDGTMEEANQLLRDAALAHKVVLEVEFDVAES

GRIP2_5, Q9C0E4 = target: GRIP2_5, Q9C0E4
Chain of GRIP2_5, Q9C0E4 (Q9C0E4 544-642): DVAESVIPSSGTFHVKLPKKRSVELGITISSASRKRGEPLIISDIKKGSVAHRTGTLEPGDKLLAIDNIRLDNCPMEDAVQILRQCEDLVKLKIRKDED

GRIP2_6, Q9C0E4 = target: GRIP2_6, Q9C0E4
Chain of GRIP2_6, Q9C0E4 (Q9C0E4 648-740): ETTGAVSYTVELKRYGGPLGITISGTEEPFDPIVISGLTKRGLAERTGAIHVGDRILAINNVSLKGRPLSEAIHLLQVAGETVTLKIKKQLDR

HTRA1, Q92743 = target: HTRA1, Q92743
Chain of HTRA1, Q92743 (Q92743 360-477): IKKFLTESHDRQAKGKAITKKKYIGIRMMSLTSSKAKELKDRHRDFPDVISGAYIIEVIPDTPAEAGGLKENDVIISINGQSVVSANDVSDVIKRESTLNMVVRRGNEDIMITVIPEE

HTRA2, O43464 = target: HTRA2, O43464
Chain of HTRA2, O43464 (O43464 355-458): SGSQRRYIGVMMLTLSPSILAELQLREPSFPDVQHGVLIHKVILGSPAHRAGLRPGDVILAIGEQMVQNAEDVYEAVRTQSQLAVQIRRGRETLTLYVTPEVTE

IL16_3, Q14005 = target: IL16_3, Q14005
Chain of IL16_3, Q14005 (Q14005 1107-1207): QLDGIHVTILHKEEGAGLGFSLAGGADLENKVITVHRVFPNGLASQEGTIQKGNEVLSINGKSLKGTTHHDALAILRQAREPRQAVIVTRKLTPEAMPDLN

IL16_4, Q14005 = target: IL16_4, Q14005
Chain of IL16_4, Q14005 (Q14005 1229-1329): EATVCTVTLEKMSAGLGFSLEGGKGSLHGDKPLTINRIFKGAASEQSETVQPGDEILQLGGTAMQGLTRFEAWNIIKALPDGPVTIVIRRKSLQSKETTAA

Inadl_9, Q8NI35 = target: Inadl_9, Q8NI35
Chain of Inadl_9, Q8NI35 (Q8NI35 1530-1615): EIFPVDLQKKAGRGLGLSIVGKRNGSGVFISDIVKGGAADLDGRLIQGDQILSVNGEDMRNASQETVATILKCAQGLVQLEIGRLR

LDB3, O75112 = target: LDB3, O75112
Chain of LDB3, O75112 (O75112 1-94): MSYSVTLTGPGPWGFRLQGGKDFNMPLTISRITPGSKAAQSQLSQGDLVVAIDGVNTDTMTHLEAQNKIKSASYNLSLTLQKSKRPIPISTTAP

LIMK2, P53671 = target: LIMK2, P53671
Chain of LIMK2, P53671 (P53671 143-248): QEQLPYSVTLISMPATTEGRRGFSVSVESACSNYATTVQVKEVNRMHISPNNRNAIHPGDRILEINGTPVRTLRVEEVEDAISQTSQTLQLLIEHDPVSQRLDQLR

LIN7A, O14910 = target: T4, LIN7A, O14910
LNX1_1, Q8TBB1 = target: LNX1_1, Q8TBB1
Chain of LNX1_1, Q8TBB1 (Q8TBB1 261-371): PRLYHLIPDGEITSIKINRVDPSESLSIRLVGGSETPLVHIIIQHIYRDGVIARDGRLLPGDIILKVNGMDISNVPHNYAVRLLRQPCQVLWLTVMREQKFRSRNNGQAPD

LNX1_3, Q8TBB1 = target: LNX1_3, Q8TBB1
Chain of LNX1_3, Q8TBB1 (Q8TBB1 500-596): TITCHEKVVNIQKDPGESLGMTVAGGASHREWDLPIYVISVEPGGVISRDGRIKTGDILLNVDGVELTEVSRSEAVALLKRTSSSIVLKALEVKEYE

MAGI1_1, Q96QZ7 = target: MAGI1_1, Q96QZ7
Chain of MAGI1_1, Q96QZ7 (Q96QZ7 1-106): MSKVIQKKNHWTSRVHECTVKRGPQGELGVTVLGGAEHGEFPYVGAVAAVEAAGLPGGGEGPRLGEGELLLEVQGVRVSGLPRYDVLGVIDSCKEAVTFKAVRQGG

MAGI1_2, Q96QZ7 = target: MAGI1_2, Q96QZ7
Chain of MAGI1_2, Q96QZ7 (Q96QZ7 456-580): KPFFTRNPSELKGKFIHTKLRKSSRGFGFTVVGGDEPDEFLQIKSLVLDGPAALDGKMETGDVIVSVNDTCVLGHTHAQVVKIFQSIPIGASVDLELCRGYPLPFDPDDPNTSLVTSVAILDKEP

MAST1, Q9Y2H9 = target: MAST1, Q9Y2H9
Chain of MAST1, Q9Y2H9 (Q9Y2H9 962-1065): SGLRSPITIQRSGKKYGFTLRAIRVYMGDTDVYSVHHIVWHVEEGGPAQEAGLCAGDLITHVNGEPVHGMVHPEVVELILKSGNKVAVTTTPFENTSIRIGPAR

MPP6, Q9NZW5 = target: T5, MPP6, Q9NZW5
MPP7, Q5T2T1 = target: T6, MPP7, Q5T2T1
NHERF4_4, Q86UT5 = target: NHERF4_4, Q86UT5
Chain of NHERF4_4, Q86UT5 (Q86UT5 464-550): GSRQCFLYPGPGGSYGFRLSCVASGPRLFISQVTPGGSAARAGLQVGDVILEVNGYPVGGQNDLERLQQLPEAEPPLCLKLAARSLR

PDZRN4_1, Q6ZMN7 = target: PDZRN4_1, Q6ZMN7
Chain of PDZRN4_1, Q6ZMN7 (Q6ZMN7 213-318): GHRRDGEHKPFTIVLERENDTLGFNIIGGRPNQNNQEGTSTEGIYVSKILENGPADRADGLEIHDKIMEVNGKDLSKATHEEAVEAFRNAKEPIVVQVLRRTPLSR

RAPGEF6, Q8TEU7 = target: T7, RAPGEF6, Q8TEU7
SNTG1, Q9NSN8 = target: T8, SNTG1, Q9NSN8

pKd (APBA1_1, Q02410)	pKd (CASK, O14936)	pKd (DLG1_3, Q12959)	pKd (DLG3_3, Q92796)	pKd (FRMPD2_1, Q68DX3)	pKd (FRMPD3, Q5JV73)	pKd (GRIP1_4, Q9Y3R0)	pKd (GRIP2_4, Q9C0E4)	pKd (GRIP2_5, Q9C0E4)	pKd (GRIP2_6, Q9C0E4)	pKd (HTRA1, Q92743)	pKd (HTRA2, O43464)	pKd (IL16_3, Q14005)	pKd (IL16_4, Q14005)	pKd (Inadl_9, Q8NI35)	pKd (LDB3, O75112)	pKd (LIMK2, P53671)	pKd (LIN7A, O14910)	pKd (LNX1_1, Q8TBB1)	pKd (LNX1_3, Q8TBB1)	Binder	further results
below the threshold	3.67	below the threshold	below the threshold	below the threshold	below the threshold	below the threshold	below the threshold	below the threshold	4.14	5.38	3.85	below the threshold	below the threshold	4.19	below the threshold	below the threshold	below the threshold	below the threshold	below the threshold	STYCDYTIEI [FAM71C, Q8NEG0]	pKd (MAGI1_1, Q96QZ7): below the threshold; pKd (MAGI1_2, Q96QZ7): below the threshold; pKd (MAST1, Q9Y2H9): 4.47; pKd (MPP6, Q9NZW5): 3.67; pKd (MPP7, Q5T2T1): 4.6; pKd (NHERF4_4, Q86UT5): 4.68; pKd (PDZRN4_1, Q6ZMN7): below the threshold; pKd (RAPGEF6, Q8TEU7): below the threshold; pKd (SNTG1, Q9NSN8): below the threshold
below the threshold	below the threshold	below the threshold	below the threshold	below the threshold	below the threshold	below the threshold	below the threshold	below the threshold	below the threshold	below the threshold	below the threshold	below the threshold	below the threshold	below the threshold	below the threshold	below the threshold	below the threshold	below the threshold	below the threshold	RSPVATATSC [DUSP5, Q16690]	pKd (MAGI1_1, Q96QZ7): below the threshold; pKd (MAGI1_2, Q96QZ7): below the threshold; pKd (MAST1, Q9Y2H9): 3.81; pKd (MPP6, Q9NZW5): below the threshold; pKd (MPP7, Q5T2T1): below the threshold; pKd (NHERF4_4, Q86UT5): below the threshold; pKd (PDZRN4_1, Q6ZMN7): below the threshold; pKd (RAPGEF6, Q8TEU7): below the threshold; pKd (SNTG1, Q9NSN8): below the threshold

Continued, binder first:

Binder	pKd (APBA1_1, Q02410)	pKd (CASK, O14936)	pKd (DLG1_3, Q12959)	pKd (DLG3_3, Q92796)	pKd (FRMPD2_1, Q68DX3)	pKd (FRMPD3, Q5JV73)	pKd (GRIP1_4, Q9Y3R0)	pKd (GRIP2_4, Q9C0E4)	pKd (GRIP2_5, Q9C0E4)	pKd (GRIP2_6, Q9C0E4)	pKd (HTRA1, Q92743)	pKd (HTRA2, O43464)	pKd (IL16_3, Q14005)	pKd (IL16_4, Q14005)	pKd (Inadl_9, Q8NI35)	pKd (LDB3, O75112)	pKd (LIMK2, P53671)	pKd (LIN7A, O14910)	pKd (LNX1_1, Q8TBB1)	pKd (LNX1_3, Q8TBB1)	further results
NISARRFTLC [FAM167B, Q9BTA0]	below the threshold	below the threshold	4.06	4.25	4.1	below the threshold	below the threshold	below the threshold	below the threshold	3.57	4.47	4.44	below the threshold	below the threshold	below the threshold	below the threshold	below the threshold	below the threshold	3.85	below the threshold	pKd (MAGI1_1, Q96QZ7): 3.59; pKd (MAGI1_2, Q96QZ7): 5.12; pKd (MAST1, Q9Y2H9): below the threshold; pKd (MPP6, Q9NZW5): below the threshold; pKd (MPP7, Q5T2T1): below the threshold; pKd (NHERF4_4, Q86UT5): below the threshold; pKd (PDZRN4_1, Q6ZMN7): below the threshold; pKd (RAPGEF6, Q8TEU7): below the threshold; pKd (SNTG1, Q9NSN8): 3.48
PLPPEEESWV [GAS2L2, Q8NHY3]	below the threshold	below the threshold	below the threshold	below the threshold	below the threshold	3.72	below the threshold	below the threshold	below the threshold	below the threshold	5.14	3.96	below the threshold	below the threshold	4.34	below the threshold	below the threshold	below the threshold	below the threshold	below the threshold	pKd (MAGI1_1, Q96QZ7): below the threshold; pKd (MAGI1_2, Q96QZ7): below the threshold; pKd (MAST1, Q9Y2H9): below the threshold; pKd (MPP6, Q9NZW5): below the threshold; pKd (MPP7, Q5T2T1): 3.57; pKd (NHERF4_4, Q86UT5): below the threshold; pKd (PDZRN4_1, Q6ZMN7): 4.13; pKd (RAPGEF6, Q8TEU7): 3.6; pKd (SNTG1, Q9NSN8): 5.6
LVEEEEPMNL [HDAC7, Q8WUI4]	below the threshold	below the threshold	below the threshold	below the threshold	below the threshold	below the threshold	below the threshold	below the threshold	below the threshold	below the threshold	4.16	below the threshold	below the threshold	below the threshold	below the threshold	below the threshold	below the threshold	below the threshold	below the threshold	below the threshold	pKd (MAGI1_1, Q96QZ7): below the threshold; pKd (MAGI1_2, Q96QZ7): below the threshold; pKd (MAST1, Q9Y2H9): 3.61; pKd (MPP6, Q9NZW5): 3.57; pKd (MPP7, Q5T2T1): below the threshold; pKd (NHERF4_4, Q86UT5): 3.78; pKd (PDZRN4_1, Q6ZMN7): below the threshold; pKd (RAPGEF6, Q8TEU7): below the threshold; pKd (SNTG1, Q9NSN8): below the threshold
